This passage reports invasion level of the LF82-ΔompA mutant on IEC pretreated with LF82 OMVs, relative to strain LF82 taken as 100% and residual invasion level of the LF82-ΔompA mutant in Intestine-407 cells compared to wild-type strain LF82 taken as 100% results from patent US20130084292A1.

This assay deals with Gp96 receptor (heat shock protein 90 kDa beta (Grp94 or Gp96), member 1 [Homo sapiens]) (Homo sapiens) (UniProt P14625). Kind of assay: cell-based or functional assay.
Gp96 receptor (heat shock protein 90 kDa beta (Grp94 or Gp96), member 1 [Homo sapiens]) (Homo sapiens), sequence (P14625 22-803 limits assumed): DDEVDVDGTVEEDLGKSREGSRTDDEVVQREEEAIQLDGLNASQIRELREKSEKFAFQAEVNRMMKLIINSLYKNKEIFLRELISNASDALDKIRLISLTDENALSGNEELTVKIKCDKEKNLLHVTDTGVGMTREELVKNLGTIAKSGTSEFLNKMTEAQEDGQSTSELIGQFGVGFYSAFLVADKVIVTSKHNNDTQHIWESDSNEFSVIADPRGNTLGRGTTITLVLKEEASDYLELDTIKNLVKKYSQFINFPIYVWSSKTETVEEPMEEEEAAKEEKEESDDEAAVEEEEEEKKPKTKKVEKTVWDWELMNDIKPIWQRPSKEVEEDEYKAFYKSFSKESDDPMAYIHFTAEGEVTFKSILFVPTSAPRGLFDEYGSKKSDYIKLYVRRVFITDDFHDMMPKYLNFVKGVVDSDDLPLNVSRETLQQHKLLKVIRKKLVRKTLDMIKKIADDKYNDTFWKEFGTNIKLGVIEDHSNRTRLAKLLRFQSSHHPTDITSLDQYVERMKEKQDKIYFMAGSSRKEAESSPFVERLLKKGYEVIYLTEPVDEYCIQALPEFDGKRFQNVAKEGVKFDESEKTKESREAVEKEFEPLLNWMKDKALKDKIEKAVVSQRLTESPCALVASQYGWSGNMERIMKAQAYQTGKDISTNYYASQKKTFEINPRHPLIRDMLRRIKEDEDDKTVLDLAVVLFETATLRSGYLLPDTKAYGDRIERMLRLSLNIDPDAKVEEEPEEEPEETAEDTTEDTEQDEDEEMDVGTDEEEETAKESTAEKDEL

Take “OmpA outer membrane protein of E. coli AIEC strain LF82 (from UniProt P0A910 22-346) (ligand)”: the invasion level of the LF82-ΔompA mutant on IEC pretreated with LF82 OMVs, relative to strain LF82 taken as 100% turned out to be 85.2% and the residual invasion level of the LF82-ΔompA mutant in Intestine-407 cells compared to wild-type strain LF82 taken as 100% is 56.3%.
